Measured values taken from article PMC7923543, “Molecular mechanisms of assembly and TRIP13-mediated remodeling of the human Shieldin complex” (Proceedings of the National Academy of Sciences of the …, 2021).

What was measured:
[1] = biological target: T1, REV7 (R124A mutant), full-length (human, UniProt Q9UI95 1-211, R124A); test: crystal structure; coexpressed, co-purified SHLD3s–REV7(R124A) complex; hanging drop, 0.2 M ammonium acetate, 0.1 M Na citrate pH 5.6, 30% PEG4000, 20 °C; 2.7 Å; conditions: both partners purified
T1 construct: REV7 (MAD2L2, MAD2B), human, 211 residues, R124A; R124A was introduced to improve crystallization; also called MAD2L2; MAD2B; source: E. coli BL21 CodonPlus(DE3)-RIL, coexpressed with the SHLD3 fragment, purified (HisTrap, HiTrap Q, Superdex 200); not shown: His6-SUMO, N-terminal, cleaved
T1 sequence (Q9UI95 whole entry R124A, the tested form may be a part): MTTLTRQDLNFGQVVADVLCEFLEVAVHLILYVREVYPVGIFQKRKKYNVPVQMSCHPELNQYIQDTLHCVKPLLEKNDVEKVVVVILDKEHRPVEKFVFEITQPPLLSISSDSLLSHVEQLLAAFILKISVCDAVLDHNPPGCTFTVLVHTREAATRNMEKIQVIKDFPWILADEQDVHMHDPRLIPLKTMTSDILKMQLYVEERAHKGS

[2] = biological target: T2, REV7 (human, UniProt Q9UI95 1-211); test: crystal structure; SHLD2.3–REV7_(4) complex (peak Q2); hanging drop, 0.1 M Na acetate pH 5.6, 1.5 M Na formate, 20 °C; 3.8 Å; conditions: both partners purified
T2 construct: REV7 (MAD2L2, MAD2B), human, 211 residues; also called MAD2L2; MAD2B; not shown: His6-SUMO, N-terminal, cleaved
T2 sequence (Q9UI95 whole entry): as the sequence (Q9UI95 whole entry R124A, the tested form may be a part) above, with A124R counted along it

[3] = biological target: the molecule itself; test: cryo-EM structure; reconstituted complexes with TRIP13(E253Q) and ATPγS, 0.3 mg/mL, Titan Krios 300 kV, RELION3
[4] = biological target: T1, REV7 (R124A mutant), full-length; test: SEC-MALS; coexpressed, co-purified SHLD3(35–74)–REV7(R124A) complex; Superdex200 10/300, 20 mM Tris·HCl pH 7.5, 150 mM NaCl, 2 mM DTT; conditions: both partners purified

B1: SHLD3s fusion protein (SHLD3 residues 35 to 58 and REV3 residues 1887 to 1894) (other, UniProt Q6ZNX1 35-58, looked up)
chain: LSRFIPWFPYDGSKLPLRPKRSPPREEIMATL
notes: SHLD3, human, residues 35-58; also called SHLD3_(35–58)
- binding result [1]: binds

B2: SHLD2 fragment (residues 1 to 19), the SHLD2 part of SHLD2.3 (domain or fragment, human, UniProt Q86V20 1-19, looked up)
chain: MSGGSQVHIFWGAPIAPLK
notes: In the crystal it stood on one chain with SHLD3(1-58); written apart for the SHLD2–SHLD3 and SHLD2–REV7 contacts; also called SHLD2(residues 1 to 19); source: E. coli BL21 CodonPlus(DE3)-RIL, as part of the SHLD2.3 fusion chain, purified with REV7
- binding result [2]: binds

B3: TRIP13 catalytic mutant (E253Q) hexamer (enzyme)
chain: MDEAVGDLKQALPCVAESPTVHVEVHQRGSSTAKKEDINLSVRKLLNRHNIVFGDYTWTEFDEPFLTRNVQSVSIIDTELKVKDSQPIDLSACTVALHIFQLNEDGPSSENLEEETENIIAANHWVLPAAEFHGLWDSLVYDVEVKSHLLDYVMTTLLFSDKNVNSNLITWNRVVLLHGPPGTGKTSLCKALAQKLTIRLSSRYRYGQLIEINSHSLFSKWFSESGKLVTKMFQKIQDLIDDKDALVFVLIDQVESLTAARNACRAGTEPSDAIRVVNAVLTQIDQIKRHSNVVILTTSNITEKIDVAFVDRADIKQYIGPPSAAAIFKIYLSCLEELMKCQIIYPRQQLLTLRELEMIGFIENNVSKLSLLLNDISRKSEGLSGRVLRKLPFLAHALYVQAPTVTIEGFLQALSLAVDKQFEERKKLAAYI
notes: TRIP13, AAA+ ATPase, E253Q; used with ATPγS; also called TRIP13(E253Q); TRIP13 (E253Q); source: E. coli BL21 CodonPlus(DE3)-RIL, purified (HiTrap Q, Superdex 200)
- stoichiometry N [3]: 6

B4: SHLD3 35- to 74-residue fragment (domain or fragment, human, UniProt Q6ZNX1 35-74, looked up)
chain: LSRFIPWFPYDGSKLPLRPKRSPPVISEEAAEDVKQYLTI
notes: SHLD3, human, 250 residues; residues 35-74; also called SHLD3_(35–74); source: E. coli, coexpressed with REV7(R124A), purified as the complex
- binding result [4]: binds
